Data on 4 molecules can be found in US20090286724A1, “AGGREGABLE GLP-1 ANALOGUE AND SUSTAINED-RELEASE PHARMACEUTICAL COMPOSITION” (CHUGAI SEIYAKU KABUSHIKI KAISHA, priority 2005, published 2009).

Ends that are not written are not given here.

For data set [1] the following is noted: peptide 100 μg/mL, 100 mM HEPES pH 7.4, 25° C., 18 hours.
Method: Further, zinc chloride was dissolved in Milli-Q water to give a final concentration of 0.1 mg/mL. 1 M HEPES (N-[2-hydroxyethyl]piperazine-N′-[2-ethanesulfonic acid]) buffer (pH 7.4) was separately prepared. To each of the aqueous solutions of peptide, the HEPES buffer, Milli-Q water and the aqueous solution of zinc chloride were sequentially added, whereby samples were prepared such that the final volume was 1 mL, the final concentration of peptide was 100 μg/mL, the final concentration of HEPES (pH 7.4) was 100 mM, and the ratio of zinc chloride to the mole number of peptide became various ratios (Z/P=0 to 30). These samples were let stand at room temperature (25° C.) for 18 hours. Each mixture was centrifuged (10,000 g, 3 min), and the concentration of peptide in the supernatant was determined by RP-HPLC.
A short description of data set [2]: Evaluation for aggregability by stirring in PBS (absorbance at 350 nm, monomer by RP-HPLC). The data set is classed as physicochemical. The settings on record: 1 mg/mL in PBS. On the procedure:
Each of the GLP-1 analogue and WT-GLP-1 in Example 1 was dissolved in PBS at a concentration of 1 mg/mL, and the amount of monomer was determined by RP-HPLC. 450 μL of each of the same solutions was placed into a glass vial along with a stirring bar, and the solution was stirred with a stirrer at room temperature for 20 hours. After stirring, the absorbance of the solution at 350 nm was determined (DU640, manufactured by Beckman). As for the supernatant after centrifugation, the monomer quantification by RP-HPLC and CD measurement (J-725, manufactured by Jasco Co.) were carried out.
System: NanoSpace SI-2 (manufactured by Shiseido Co., Ltd.)
Column: Capcell PAK C18, 1 mm×75 mm (manufactured by Shiseido Co., Ltd.)
Eluent A: water/acetonitrile/TFA=949/50/1
Eluent B: water/acetonitrile/TFA=50/949/1
Elution method: Gradient from 80/20 to 20/80 (Eluent A/Eluent B)
The aggregability of Peptide 3 was evaluated in the same manner as the method shown in Example 2.

Data set [3] in a line: Precipitation of peptide as zinc salt, peptide in supernatant by RP-HPLC. The data set is classed as physicochemical. The settings on record: Z/P=15, peptide 1 mg/mL, 100 mM HEPES pH 7.4, 25° C., 18 hours.
Method: Further, zinc chloride was dissolved in Milli-Q water to give a final concentration of 1 mg/mL. 1 M HEPES buffer (pH 7.4) was separately prepared. To the aqueous solution of peptide, the HEPES buffer, Milli-Q water and the aqueous solution of zinc chloride were sequentially added, whereby a sample was prepared such that the final volume was 30 mL, the final concentration of peptide was 1 mg/mL, the final concentration of HEPES (pH 7.4) was 100 mM, and the ratio of zinc chloride to Peptide 1 became Z/P=1. The resulting solution was let stand at room temperature (25° C.) for 18 hours. […] The solution was subjected to a centrifugation procedure (10,000 g, 3 min) and decantation, whereby the white precipitate and supernatant were separated.
Further, zinc chloride was dissolved in Milli-Q water to give a final concentration of 1 mg/mL. 1 M HEPES buffer (pH 7.4) was separately prepared. […] The resulting solution was let stand at room temperature (25° C.) for 18 hours. […] The solution was subjected to a centrifugation procedure (10,000 g, 3 min) and decantation, whereby the white precipitate and supernatant were separated.
Data set [4] is described as follows: In vitro release test of GLP-1 from Zinc/GLP-1 complex. To be noted: PBS pH 7.4, 37° C. The data set is classed as physicochemical. The procedure:
The quantification of GLP-1 analogue was carried out using RP-HPLC.
400 μg of each of WT-GLP-1 and GLP-1 analogue (Peptide 1) was dissolved in a 1 mM HCl solution (200 μL, pH: 2.8) containing 2 mg/mL zinc chloride. 100 μL of each of the resulting solutions was added to E-tube and diluted with a 1 mM HCl solution, whereby a 1 mg/mL solution was prepared. Then, 20 μL of PB (pH: 8.9, 100 mM) was added thereto, whereby a complex of Zinc/GLP-1 was formed. After the resulting mixture was centrifuged at 15,000 rpm for 5 minutes, the supernatant was removed, whereby a Zinc/GLP-1 complex was obtained.
PBS (0.5 mL, pH: 7.4) was added to E-tube containing the Zinc/GLP-1 complex at 37° C. The E-tube was centrifuged at different time points, and the supernatant was sampled, and 0.5 mL of PBS was freshly added thereto. 20 μL of 0.2 M HCl was added to 200 μL of the sample, and quantification was carried out by RP-HPLC.

In the next data set the target is Human GLP-1 receptor (human, UniProt P43220). Briefly: cell-based or functional assay.

In the case of “HGEGTFTSDVSSYLEGQAAKEFIRWLVKGRG [Peptide 1, [Gly^8]-[Arg^30]-GLP-1(7-37)]”, the “ratio of added zinc to peptide (Z/P) when the solubility was the lowest” value in data set [1] is recorded as “around 1”.
For the molecule “Peptide 3: comparative GLP-1 analogue with an isoelectric point nearly equal to that of Peptide 1 (HGEGTFTSDVKSYLEGQAAKEFIAWLVKGRG)”, the “aggregability compared with WT-GLP-1” value in data set [2] (stirred 20 hours) is on record as “an increase in the aggregability compared with that of WT-GLP-1 was not observed”. Also, in data set [2] (stirred at room temperature for 20 hours), the “UV 350 nm Absorbance” value is on record as 0.06. In addition, the “RP-HPLC Amount of residual monomer (%)” value in data set [2] (stirred at room temperature for 20 hours, supernatant after centrifugation) is 95%.
With `CC[C@H](C)[C@H](NC(=O)[C@H](Cc1ccccc1)NC(=O)[C@H](CCC(=O)O)NC(=O)[C@H](CCCCN)NC(=O)[C@H](C)NC(=O)[C@H](C)NC(=O)[C@H](CCC(N)=O)NC(=O)CNC(=O)[C@H](CCC(=O)O)NC(=O)[C@H](CC(C)C)NC(=O)[C@H](Cc1ccc(O)cc1)NC(=O)[C@H](CO)NC(=O)[C@H](CO)NC(=O)[C@@H](NC(=O)[C@H](CC(=O)O)NC(=O)[C@H](CO)NC(=O)[C@@H](NC(=O)[C@H](Cc1ccccc1)NC(=O)[C@@H](NC(=O)CNC(=O)[C@H](CCC(=O)O)NC(=O)[C@H](C)NC(=O)[C@@H](N)Cc1c[nH]cn1)[C@@H](C)O)[C@@H](C)O)C(C)C)C(=O)N[C@@H](C)C(=O)N[C@@H](Cc1c[nH]c2ccccc12)C(=O)N[C@@H](CC(C)C)C(=O)N[C@H](C(=O)N[C@@H](CCCCN)C(=O)NCC(=O)N[C@@H](CCCNC(=N)N)C(=O)NCC(=O)O)C(C)C` [WT, GLP-1(7-37)], the “peptide precipitated as a zinc salt” value in data set [3] turned out to be 95.7%. Moreover, in data set [4], the “release observed until day” value is 14 days.
In the case of HGEGTFTSDVSSYLEGQAAKEFIRWLVKGRG [[Gly^8]-[Arg^30]-GLP-1(7-37)], the “EC50 value for cAMP production” value in the data set with Human GLP-1 receptor stood at 0.0902 nM.
